Reference: US20140056903A1 (Regeneron, published 2014)

T1: human GFRα3 on HEK293/hGFRα3/hRET/SRE-luc cells (human, UniProt O60609 32-382)
T1 sequence: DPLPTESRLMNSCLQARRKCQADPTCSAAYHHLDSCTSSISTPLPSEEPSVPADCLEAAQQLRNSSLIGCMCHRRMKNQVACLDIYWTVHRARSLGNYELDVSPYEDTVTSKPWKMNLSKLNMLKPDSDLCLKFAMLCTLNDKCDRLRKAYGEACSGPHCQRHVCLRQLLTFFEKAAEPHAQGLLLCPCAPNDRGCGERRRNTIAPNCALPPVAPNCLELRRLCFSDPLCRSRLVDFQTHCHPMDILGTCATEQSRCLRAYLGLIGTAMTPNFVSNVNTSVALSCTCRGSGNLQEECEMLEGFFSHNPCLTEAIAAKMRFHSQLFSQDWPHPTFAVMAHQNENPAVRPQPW

T2: human GFRα3 expressed with a C-terminal mFc tag (human)
T2 construct: also called hGFRα3-mFc
T2 chain: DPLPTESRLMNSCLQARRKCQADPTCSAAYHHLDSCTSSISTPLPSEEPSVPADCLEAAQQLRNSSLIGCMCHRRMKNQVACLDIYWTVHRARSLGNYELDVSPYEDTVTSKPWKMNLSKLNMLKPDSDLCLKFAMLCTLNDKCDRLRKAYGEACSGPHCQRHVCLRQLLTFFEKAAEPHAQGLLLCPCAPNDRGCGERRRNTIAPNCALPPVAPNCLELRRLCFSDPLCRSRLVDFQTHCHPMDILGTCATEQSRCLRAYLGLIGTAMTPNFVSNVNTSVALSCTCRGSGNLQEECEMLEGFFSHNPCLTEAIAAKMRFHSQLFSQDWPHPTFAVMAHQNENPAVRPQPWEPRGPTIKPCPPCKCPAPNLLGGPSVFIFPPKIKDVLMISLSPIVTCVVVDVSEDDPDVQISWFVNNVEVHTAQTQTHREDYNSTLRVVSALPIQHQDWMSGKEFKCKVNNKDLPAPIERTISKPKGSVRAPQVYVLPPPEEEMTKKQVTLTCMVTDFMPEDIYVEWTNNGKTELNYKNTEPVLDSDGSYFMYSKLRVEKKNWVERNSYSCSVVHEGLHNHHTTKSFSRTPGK


Tests used:
[1] = target: T1, human GFRα3 on …; assay: cell-based or functional assay
[2] = target: T3, human GFRα3 expressed with a C-terminal myc-myc-hexahistidine tag (human, UniProt O60609 32-374, biotinylated (sites not given) in ELISA format 2 and in the Octet cross-competition; not in SPR); assay: Octet cross-competition; biotin-hGFRα3-mmH pre-saturated with first antibody H4H2294S
T3 construct: also called hGFRα3-mmh; hGFRα3-mmH
Experimental: (§1) A cross-competition assay was conducted to assess the ability of select antibodies to compete with one another for binding to human GFRα3 using an Octet RED384 biosensor (Fortebio Inc.). The entire experiment was performed at 25° C. with the flow rate of 1000 rpm in Octet HBST buffer (0.01 M HEPES pH7.4, 0.15M NaCl, 3 mM EDTA, 0.05% v/v Surfactant P20, 0.1 mg/mL BSA). To assess whether 2 antibodies were able to compete with one another for binding to their respective epitopes on biotinylated recombinant human GFRα3 expressed with a C-terminal myc-myc-hexahistidine tag (biotin-hGFRα3-mmH; SEQ ID:370), around ˜1.2 nm of biotin-hGFRα3-mmH was first captured onto streptavidin-coated Octet sensor tips (Fortebio Inc, #18-5019) by submerging the tips for 1 minute into a 10 μg/mL solution of biotin-hGFRα3-mmH. The antigen coated sensor tips were then placed into wells containing 25 μg/mL solution of a first anti-GFRα3 monoclonal antibody for 4 minutes to saturate the biotin-hGFRα3-mmH surface. The sensor tips were then subsequently dipped into wells containing 25 μ/mL solution of a second anti-GFRα3 monoclonal antibody. The sensor tips were washed in Octet HBST buffer in between every step of the experiment. The real-time binding response was monitored during the course of the experiment and the binding response at the end of every step was recorded as shown in FIG. 9. The response of mAb-2 binding to biotin-hGFRα3-mmH pre-complexed with the first antibody was compared and competitive/non-competitive behavior of different anti-GFRα3 monoclonal antibodies was determined.

[3] = target: T3, human GFRα3 expressed with a C-terminal …; assay: Octet cross-competition; biotin-hGFRα3-mmH pre-saturated with first antibody H4H2295S
Experimental: as §1

[4] = target: T3, human GFRα3 expressed with a C-terminal …; assay: Octet cross-competition; biotin-hGFRα3-mmH pre-saturated with first antibody H4H2342P
Experimental: as §1

[5] = target: T2, human GFRα3 expressed with a C-terminal …; assay: SPR, Ab captured, 37C
Summary of the method: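 Captured antibodies on a CM5 sensor were exposed to GFRα3 in HBS-EP or PBS/0.05% P20. The mmh-tagged proteins ran at 200–7.4 nM and the hFc-tagged protein at 100–3.7 nM. Rate constants were obtained by a 1:1 fit.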

Binder	IC50 (SRE-luc, HEK293/hGFRα3/hRET cells, 100 pM hARTEMIN-mmH) [1]	binding response of second antibody (nm) [2]	binding response of second antibody (nm) [3]	binding response of second antibody (nm) [4]	Kd [5]	koff [5]	kon [5]	t1/2 [5]
H4H2212N (antibody, human IgG4, V domains shown, human IgG4 Fc (H4H)) VH: EVQLLESGGGLVQPGGSLRLSCAASGFTFSSYAMSWVRQGPGKGLEWVSGISGSGGSTYNADSVKGRFTISRDNSKNTLYLQMNSLRAEDTAVYYCAKDSGTYWYYFDYWGQGILVTVSS VL: not shown	0.8 nM	1.92 nm	1.81 nm	1.76 nm	–	–	–	–
H4H2236N3 (antibody, human IgG4, V domains shown, human IgG4 Fc (H4H)) VH: EVQLLESGGNLVQPGGSLRLSCAASGFTFSSYAMTWVRQAPGKGLEWVSTISGSGTSTYYADSVKGRFTISRDNSRDTVFLQMNSLRAEDTAVYYCSKPSALRFLHWLAMDVWGQGTLVTVSS VL: DIQMTQSPSSLSAFVGDRVTITCRASQDIRNYLDWFQQKPGKAPKSLIYAASNLQSGVPSRFGGSGSGTDFTLTINSLQPEDFVTYYCQQYNSYPPTFGGGTKVEIK	1.5 nM	0.05 nm	0.01 nm	0.2 nm	–	–	–	–
H4H2294S (antibody, human IgG4, V domains shown, human IgG4 Fc (H4H)) VH: EVQLVESGGGLVQPGGSLRLSCAASGFTFSSYAMSWVRQAPGKGLEWVSVISGSGGSTYYADAVKGRFTISRDNSKHTLYLQMNSLRAEDTAVYYCTKPSSYSSSNFYYGMDVWGQGSTVTVSS VL: DIQLTQSPSSVSASVGDRVTITCRASQGISSWLAWYQQKPGKAPKLLIYAASSLQSGVPSRFSGSGSGTDFTLTISSLQPEDFATYYCQQTNSFPFPFGPGTKVDIK	–	0.02 nm	0.02 nm	0.23 nm	0.0209 nM	3.46e-05 s⁻¹	1.66e+06 M⁻¹ s⁻¹	5.57 h
H4H2364S (antibody, human IgG4, V domains shown, human IgG4 Fc (H4H)) VH: EVQLVESGGGLEQPGGSLRLSCAASGFTFSSYVMSWVRQVPGKGLEWVSVISGSGGSTYYADSVKGRFTISRDNSKNTLYLQMNSLRAEDTAVYYCAKPSSYSSSNFHYGMDVWGQGTTVTVSS VL: DIQMTQSPYSVSASVGDRVTITCRASQGISSWLAWYQQKPGRAPKLLIYAASSLQSGVPSRFSGSGSGTDFTLTISSLQPEDFATYYCQKTNSFPFTFGPGTKVEIK	2.3 nM	–	–	–	0.0328 nM	4.14e-05 s⁻¹	1.26e+06 M⁻¹ s⁻¹	4.65 h
H4H2344S (antibody, human IgG4, V domains shown, human IgG4 Fc (H4H)) VH: EVQLVESGGGVVQPGRSLRLSCAASGFSFSDYVMHWVRQAPGKGLEWVASIWFDGSNEFYADSVKGRFTISRDNSKNTLFLQMNSLRAEDTAVYYCAKKGVLVATSAFDIWGQGTMVTVSS VL: DIQMTQSPSSLSASVGDRVTITCRASQSINNYLNWYHQKPGKAPKLLIYAASSLQSGVPSRFSGSGSGTDYTLTISSLQPEDFGNYYCQQSYRTSMYTFGQGTKVEIK	48 nM	–	–	–	0.0891 nM	8.96e-05 s⁻¹	1.01e+06 M⁻¹ s⁻¹	2.15 h
H4H2346S (antibody, human IgG4, V domains shown, human IgG4 Fc (H4H)) VH: QVQLVESGGGVVQPGRSLRLSCAASGFSFSDYVMHWVRQAPGKGLEWVASIWFDGSNEFYADSVKGRFTISRDNSKNTLFLQMNSLRAEDTAVYYCAKKGVLVATSAFDIWGQGTMVTVSS VL: EIVMTQSPSSLSASVGDRVTITCRASQSINNYLNWYHQKPGKAPKLLIYAASSLQSGVPSRFSGSGSGTDYTLTISSLQPEDFGNYYCQQSYRTSMYTFGQGTKVEIK	26 nM	–	–	–	0.0781 nM	0.000137 s⁻¹	1.75e+06 M⁻¹ s⁻¹	1.4 h
H4H2293P (antibody, human IgG4, V domains shown, human IgG4 Fc (H4H)) VH: QVQLVESGGGVVQPGRSLRLSCAASGFSFSDYVMHWVRQAPGKGLEWVASIWFDGSNELYADSVKGRFTISRDNSKNTLFLQMNSLRAEDTAVYYCAKKGVLVATSAFHIWGQGTMVTVSS VL: AIQMTQSPSSLSASVGDRVTITCRASQNINNYLNWYHQKPGKAPNLLIYAASSLQSGVPSRFSGSGSGTDYTLTISSLQPEDFGNYYCQQSYSTSMYTFGQGTKLEIK	20 nM	–	–	–	0.0299 nM	5.13e-05 s⁻¹	1.71e+06 M⁻¹ s⁻¹	3.75 h
H4H2350P (antibody, human IgG4, V domains shown, human IgG4 Fc (H4H)) VH: QVQLQESGPGLVKPSETLSLTCTVSGGSISTYYWSWFRQPPGKGLEWIGYIYYSGSTNHNPSLKSRVTISVDTSKNQFSLKLRSVTAADTAVYYCARVGPVGWGSWGNFDYWGQGTLVTVSS VL: DIQLTQSPSFLSASVGDRVTITCWASQGISSYLAWSQQKPGKAPKLLIYAASTLQSGVPSRFSGSGSGTEFTLTISSLQPEDFATYYCQQLNSYPWTFGQGTKVEIK	–	1.42 nm	1.35 nm	1.46 nm	0.0492 nM	0.000126 s⁻¹	2.56e+06 M⁻¹ s⁻¹	1.53 h

The remaining binders from weak to strong by Kd [5], led by results:

IC50 (SRE-luc, HEK293/hGFRα3/hRET cells, 100 pM hARTEMIN-mmH) [1]	binding response of second antibody (nm) [2]	binding response of second antibody (nm) [3]	binding response of second antibody (nm) [4]	Kd [5]	koff [5]	kon [5]	t1/2 [5]	Binder
26 nM	–	–	–	0.106 nM	7.44e-05 s⁻¹	700000 M⁻¹ s⁻¹	2.58 h	H4H2345S (antibody, human IgG4, V domains shown, human IgG4 Fc (H4H)) VH: EVQLVESGGGLVRPGRSLRLSCAASGFTFDNYAMHWVRQVPGKGLEWVSGITWNSVSLGYADSVKGRFTISRDNAQNSLYLQMNSLRTVDTALYYCAKDRWGGSYYFDFWGQGTLVTVSS VL: DIVMTQSPSSLSASVGDRVTITCRASQGISNYLAWYQQKPGKVPKLLIYSASTLQSGVPSRFSGSGSGTDFTLTISNLQPEDFATFFCQKYNSAPTFGGGTKVEIK
22 nM	–	–	–	0.0895 nM	9.11e-05 s⁻¹	1.02e+06 M⁻¹ s⁻¹	2.12 h	H4H2354S (antibody, human IgG4, V domains shown, human IgG4 Fc (H4H); also called H4H2354S-1) VH: QVQLVESGGGVVQPGRSLRLSCAASGFSFSDYVMHWVRQAPGKGLEWVASIWFDGSNEFYADSVKGRFTISRDNSKNTLFLQMNSLRAEDTAVYYCAKKGVLVATSAFDIWGQGTMVTVSS VL: DIQLTQSPSSLSASVGDRVTITCRASQSINNYLNWYHQKPGKAPKLLIYAASSLQSGVPSRFSGSGSGTDYTLTISSLQPEDFGNYYCQQSYRTSMYTFGQGTKVEIK
7.1 nM	–	–	–	0.0789 nM	7.58e-05 s⁻¹	961000 M⁻¹ s⁻¹	2.53 h	H4H2341S (antibody, human IgG4, V domains shown, human IgG4 Fc (H4H)) VH: EVQLVESGAEVKKSGSSVKVSCKASGGTFSRYAISWVRQAPGQGLEWMGGIIPLFGTLNYAQKFQGRVTLTTDESTSTAYMELSSLRSEDTAVYYCAVFYYGSGSYRNWFDPWGQGTLVTVSS VL: not shown
